Measurements: CN107793480A (SHANGHAI JIBEI BIOLOGICAL TECH CO LTD, dated 2018)
Residue numbers refer to the chain shown, from its start.

T1: CD19-His (human, UniProt P15391 20-291)
T1 construct: Amine-coupled to AR2G biosensors for BLI; also called CD19-His抗原; not shown: His tag
T1 sequence (looked up): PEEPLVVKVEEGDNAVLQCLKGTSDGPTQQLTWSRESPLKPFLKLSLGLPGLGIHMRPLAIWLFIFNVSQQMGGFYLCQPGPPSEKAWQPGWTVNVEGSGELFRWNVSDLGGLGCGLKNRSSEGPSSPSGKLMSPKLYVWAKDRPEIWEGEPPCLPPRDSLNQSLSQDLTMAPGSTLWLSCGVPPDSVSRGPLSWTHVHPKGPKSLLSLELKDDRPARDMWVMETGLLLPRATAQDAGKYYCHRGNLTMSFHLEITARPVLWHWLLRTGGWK

T2: CD19 on Raji cells (human, UniProt P15391 20-556)
T2 construct: whole, on cells; also called Raji细胞(CD19+)
T2 sequence (looked up): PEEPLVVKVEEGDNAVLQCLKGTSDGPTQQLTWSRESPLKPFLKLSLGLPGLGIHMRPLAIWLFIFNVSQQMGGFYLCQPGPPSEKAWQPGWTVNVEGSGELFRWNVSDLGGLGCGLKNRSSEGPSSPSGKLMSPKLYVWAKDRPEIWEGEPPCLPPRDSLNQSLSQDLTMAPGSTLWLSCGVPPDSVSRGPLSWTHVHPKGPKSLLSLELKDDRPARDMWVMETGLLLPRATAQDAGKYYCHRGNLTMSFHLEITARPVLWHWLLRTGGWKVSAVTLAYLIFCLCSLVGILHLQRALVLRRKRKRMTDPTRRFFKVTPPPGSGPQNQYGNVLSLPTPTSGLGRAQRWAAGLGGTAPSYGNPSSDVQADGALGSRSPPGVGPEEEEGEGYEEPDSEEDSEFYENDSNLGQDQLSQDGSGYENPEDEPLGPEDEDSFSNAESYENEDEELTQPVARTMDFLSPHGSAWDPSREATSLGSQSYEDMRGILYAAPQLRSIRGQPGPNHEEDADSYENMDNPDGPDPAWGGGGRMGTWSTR

B1: 4B10-hIgG1 (Fc fusion)
chain: EVKLQESGPGLVAPSQSLSVTCTVSGFSLEDYGVSWIRQPPRKGLEWLGVIWGSETTYYNSALKSRLTIIKDNSKSQVFLKMNSLQTDDTAIYYCAKHYYYGGSYAMDYWGQGTSVTVSSGGGGSGGGGSGGGGSDIQMTQTTSSLSASLGDRVTISCRASQDISKYLNWYQQKPDGTVKLLIYHTSRLHSGVPSRFSGSGSGTDYSLTISNLEQEDIATYFCQQGNTLPYTFGGGTKLEIT
notes: Secreted scFv-hIgG1Fc fusion from 293 cells, protein A purified; Junction between scFv and Fc not described; also called 4B10 scFv-hIgG1Fc融合蛋白; not shown: human IgG1 Fc (hIgG1Fc) from vector pGCIgGH1
B2: C21-hIgG1 (Fc fusion)
chain: B1 chain with N227K, L229F, Y231L
notes: also called 4B10&8A10组合突变; not shown: human IgG1 Fc (hIgG1Fc) from vector pGCIgGH1
B3: 8A10-hIgG1 (Fc fusion)
chain: B1 chain with F27V, E30P, L45P, N227K, L229F, Y231L
notes: Secreted scFv-hIgG1Fc fusion from 293 cells, protein A purified; also called 8A10 scFv-hIgG1Fc融合蛋白; not shown: human IgG1 Fc (hIgG1Fc) from vector pGCIgGH1
B4: 7E11-hIgG1 (Fc fusion)
chain: EIVMTQSPATLSLSPGERATLSCRASQDISKYLNWYQQKPGQAPRLLIYHTSRLHSGIPARFSGSGSGTDYTLTISSLQPEDFAVYFCQQGKTFPLTFGQGTKLEIKGGGGSGGGGSGGGGSQVQLQESGPGLVKPSETLSLTCTVSGFSLEDYGVSWIRQPPGKGLEWIGVIWGSETTYYNSSLKSRVTISKDNSKNQVSLKLSSVTAADTAVYYCAKHYYYGGSYAMDYWGQGTLVTVSS
notes: not shown: human IgG1 Fc (hIgG1Fc) from vector pGCIgGH1
B5: C2146-hIgG1 (Fc fusion)
chain: B4 chain with K92N, F94L, L96Y, F149V, E152P
notes: also called C2146 scFv-hIgG1; not shown: human IgG1 Fc (hIgG1Fc) from vector pGCIgGH1

Columns and labels:
CD19-His = target: T1, CD19-His; assay: BLI (ForteBio Octet), CD19-His amine-coupled to AR2G sensor, scFv-hIgG1 in solution
[1] = target: CD19 (antigen of the phage competition ELISA) (human) (UniProt P15391); assay: phage competition ELISA on CD19; competitor 3ug/ml FMC63mIgG2a, anti-mouse Fc detection
CD19 on Raji cells [2] = target: T2, CD19 on Raji cells; assay: flow cytometry on Raji cells, anti-human IgG Fc-PE, MFI against concentration
CD19 on Raji cells [3] = target: T2, CD19 on Raji cells; assay: flow cytometry on Raji cells, scFv-hIgG1, all four in one experiment

Molecule	Response (CD19-His)	EC50 (CD19 on Raji cells [2]) [mg/L]	EC50 (CD19 on Raji cells [3]) [mg/L]	also measured
NC (negative control in the scFv-hIgG1 BLI table)	0.09			
NC (negative control in the phage ELISAs)				Emax(最大抑制率) [1]: 19%
B1	0.35	0.16		koff (CD19-His): 0.000895 s⁻¹
B2		0.09	0.23	
B3	0.418	0.13		koff (CD19-His): 0.000913 s⁻¹
B4			0.36	
B5			2.63	
